Here are results for 9 molecules from publication PMC3462199, “Recombinant Adiponectin Does Not Lower Plasma Glucose in Animal Models of Type 2 Diabetes” (PLoS ONE, 2012).

Changes are numbered by the printed parent chain. Names and notes keep the numbering of the source. Values joined by “and” are separate entries in the source; they are usually repeats but may differ in a detail not shown here. Equal values may be shown once.

Data set [1] addresses Murine globular adiponectin (mgAd) (murine). Description: not stated; oligomeric form and share of trimer/hexamer/HMW in the purified batch as listed in Table 1; the table does not say whether from analytical SEC (Figure 1A) or AF4-MALS.
Assay in data set [2]: as above
Data set [3] concerns the molecule itself. The data set is described as above.
Another data set addresses Q60994. Described as above.
For the next data set, the target named is Q15848. The data set is described as above.
Data set [4] deals with the molecule itself. Nature of the data set: AF4-MALS; purified batch; 20 mM Tris-HCl pH 7.4, 100 mM NaCl, 1 mM CaCl2; self-association, size of the oligomer.
Data set [5] has as its target T1, C39S version of full length murine adiponectin (C39S mAd) (murine), Q60994.
T1 chain: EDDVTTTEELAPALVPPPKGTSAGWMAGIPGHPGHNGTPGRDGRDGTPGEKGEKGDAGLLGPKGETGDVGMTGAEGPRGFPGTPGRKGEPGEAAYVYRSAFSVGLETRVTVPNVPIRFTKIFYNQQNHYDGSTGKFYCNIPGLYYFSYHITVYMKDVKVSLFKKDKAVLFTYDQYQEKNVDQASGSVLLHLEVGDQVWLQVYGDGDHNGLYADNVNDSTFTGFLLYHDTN
Description: not stated; oligomeric form and share of trimer/hexamer/HMW in the purified batch as listed in Table 1; the table does not say whether from analytical SEC (Figure 1A) or AF4-MALS. Particulars: remark: other sources report otherwise.

On to “Murine globular adiponectin (mgAd) (domain or fragment)”, for which, in data set [1], the % hexamer is -0% and the % trimer came to 100%.

For Murine globular adiponectin (mgAd), the % HMW in data set [2] was found to be 0%.

B1: Mouse globular adiponectin with an amino terminal FlagTag (FLAG-mgAd) (domain or fragment, murine, UniProt Q60994 109-247, looked up)
chain: EAAYMYRSAFSVGLETRVTVPNVPIRFTKIFYNQQNHYDGSTGKFYCNIPGLYYFSYHITVYMKDVKVSLFKKDKAVLFTYDQYQEKNVDQASGSVLLHLEVGDQVWLQVYGDGDHNGLYADNVQDSTFTGFLLYHDTN
notes: N233Q to prevent N-glycosylation; the methods mention only N233Q; Total mass printed: 17054 Da; also called FLAG tagged mouse globular adiponectin; source: S. cerevisiae ME1719, supernatant, purified (Q Sepharose FF, Superdex 200)
B1: in data set [3], the “% hexamer” value was found to be 15% and the “% trimer” value is 85%. In addition, the % HMW with Q60994 is 0%.

B2: Full length human adiponectin (hAd), high molecular weight form (protein)
chain: ETTTQGPGVLLPLPKGACTGWMAGIPGHPGHNGAPGRDGRDGTPGEKGEKGDPGLIGPKGDIGETGVPGAEGPRGFPGIQGRKGEPGEGAYVYRSAFSVGLETYVTIPNMPIRFTKIFYNQQNHYDGSTGKFHCNIPGLYYFAYHITVYMKDVKVSLFKKDKAMLFTYDQYQENNVDQASGSVLLHLEVGDQVWLQVYGEGERNGLYADNDNDSTFTGFLLYHDTN
B2: the % HMW in the data set with Q15848 is 98%.

B3: Full length human adiponectin (hAd), high molecular weight form (natural protein, UniProt Q15848 19-244, looked up)
chain: B2 chain
modifications: detected proline hydroxylations at 71, 76, 95; detected lysine hydroxylations at 33, 65, 68, 77, 101 (glycosylated hydroxylysyl)
notes: human adiponectin; coding region amplified from Human Adipocyte Marathon Ready cDNA; the original signal peptide was replaced by the human CD33 signal peptide and the protein was secreted; also called HMW hAd; HMW adiponectin; source: HMW form isolated; copies: 18
One may read the stoichiometry N as the number of molecules, sites or subunits per partner or assembly. With B3, in data set [4], the “stoichiometry N” value worked out at 18. In addition, in data set [3], the “% hexamer” value was found to be 2% and the “% trimer” value came to 0%.

B4: C39S version of full length murine adiponectin (C39S mAd), Q60994 18-247 (natural protein)
chain: T1 chain
modifications: here or on the partner: detected proline hydroxylations at 47, 50, 56, 65, 79; detected lysine hydroxylations at 68, 71, 80, 104; detected proline hydroxylations at 47, 50, 56, 65, 79; detected lysine hydroxylations at 68, 71, 80, 104
B4: in data set [5], the % hexamer is -0%, the % trimer worked out at 100% and the stoichiometry N worked out at 3.

B5: Full length murine adiponectin (mAd) (natural protein, UniProt Q60994 18-247, looked up)
chain: T1 chain with S22C
modifications: detected proline hydroxylations at 65, 79; detected lysine hydroxylations at 36, 68, 71, 80, 104
notes: murine adiponectin; coding region amplified from a mouse spleen cDNA library; the original signal peptide was replaced by the human CD33 signal peptide and the protein was secreted; The forward primer begins with catcatcat (three His codons) followed by gcc gaa gat gac gtt (A E D D V); Batch is a mixture of trimer and hexamer
For the molecule B5, in data set [3], the “% hexamer” value was found to be 53%; the “% trimer” value is 46%; the “stoichiometry N” value was 3 and 6.

B6: Full length murine adiponectin (mAd) (protein)
chain: T1 chain with S22C
Molecule B6 gave a % HMW in the data set with Q60994 of 1%.

B7: C39S version of full length murine adiponectin (C39S mAd) (protein)
chain: T1 chain
In the case of B7, the % HMW with Q60994 worked out at 0%.
